Test results published in patent publication US20180327499A1 (INSERM INSTITUT NATIONAL DE LA SANT ET DE LA RECHERCHE M …, published 2018).

How the values were obtained:
[1] = molecular target: T1, recombinant human NKG2D/Fc chimera (R&D Systems) (human, UniProt P26718 78-216); assay: ELISA on plate coated with Fc-NKG2D, dose-response, one site total binding fit
T1 construct: Bought reagent; The order Fc then NKG2D follows the printed name 'Fc-NKG2D'; also called Fc-NKG2D; NKGD2-Fc human; Fc part of the bought chimera not given
T1 sequence (looked up): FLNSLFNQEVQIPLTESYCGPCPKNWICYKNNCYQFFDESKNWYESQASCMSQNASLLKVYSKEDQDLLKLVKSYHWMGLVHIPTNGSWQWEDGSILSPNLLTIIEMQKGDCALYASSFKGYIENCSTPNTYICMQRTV

[2] = molecular target: T2, NKG2D on HEK-293T cells co-transfected with NKG2D and DAP10 (UniProt P26718 1-216, limits assumed); assay: flow cytometry on NKG2D/DAP10-transfected HEK-293 cells, one site total binding fit
T2 construct: whole, on cells; DAP10 is co-expressed for surface expression; also called NKG2D-DAP10 co-transfected HEK293T cells
T2 sequence (looked up): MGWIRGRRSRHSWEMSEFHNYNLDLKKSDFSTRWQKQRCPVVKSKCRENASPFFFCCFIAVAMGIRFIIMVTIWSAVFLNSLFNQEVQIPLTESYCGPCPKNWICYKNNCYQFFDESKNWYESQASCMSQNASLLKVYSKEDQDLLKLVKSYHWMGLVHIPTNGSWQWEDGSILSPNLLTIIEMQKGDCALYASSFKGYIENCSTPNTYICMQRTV

B1: sdAb ET2F9 (VHH)
VHH: QVQLVQSGGGLVQPGGSLRLSCAASGFTFDDYAMSWVRQAPGKGLEWVSAISWSGRTTYYAESMKGRFTTSRDNAKNTLYLQMNSLKPEDTALYYCARGDVAIRGNLDAWGQGTQVTVSS
notes: It carries a 6His tag (detected with anti-6His / anti-his antibodies); also called ET2F09; sdAb F9
EC50 [1]: 44 nM | Kd [2]: 625 nM
